# In the domain aggregation screens of Martell et al. (2025):
# Test: soluble fraction after stress (log2 fold change); higher = more stays soluble; pooled small domains, quantitative proteomics
# Conditions: stress: pH 4
# In short: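 Values are log2 fold changes, and higher ones mean more of the domain stayed soluble. Each fold change reflects the soluble amount of a domain after acid stress and is taken as a measure of aggregation propensity. The stress was pH 4, applied to pooled custom libraries of small protein domains analysed by high-throughput quantitative proteomics.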
row,Sequence,soluble fraction (log2)
1,HMGTPLYLLLAAEVRDRIATEQLAPHTAVPSERELAELHGVSRMTARQALALLESEGLVYRNPPRGTFVAE,-0.922
2,HMNLIFFSENLSTFRKEKGWTQSELAEKLGVKANTISNYEKGISTPDYKIIAKLRELFEMPTDVLLYSNLS,-0.97
3,HMHKAVVGPPNARKLAVTYGFKRWPALVFFRDGKYLGAVDGLRLWADLVREADEIMHSEPHYP,0.22
4,HMETNFTGTRIATARKAKNMSQAQLAQQLFISPQAVGKWERGESIPDIVTVVKLADVLGVDLNYFSE,-0.403
5,HMHDHKTRLQELAAQRFGSAPSYLLTADGPAHDRRFHASVEVGGRSFGPGTGKSKKRAEQVAAHIAWDALS,0.415
6,HMDEEVLVVQEGGERLDVFVAANAEGITRSFVQNLIKKGDVTVDGAPRKANYRLRSGQVVRFSLPEP,0.293
7,HMADYYSILGLTKNATDIEIKSAFRKLAKIYHPDKNPDPNARVLFEHILKAYDTLINPHSRRRYDSL,0.22
8,HMQQISDPQVLRPMAEEVLHQSQKVVQDYKGGNKNAFHALVGQMMKKTQGKGNPQVIGQVLSELLDE,-0.284
9,HMDNMFMPPVNGWDVRQALQKLQNEMGLQVKMEYSPSETITEGYVISYTPIDGMKVEKGDEVTLVISTGPE,-0.675
10,HMAVGVFQKEDGYWGYRFSIIVDGKTIARRKFTDENGSKLRTKSEAVKARAAAMVAARMERVS,0.24
11,HMVVQTELVRISITSLSGEDIRRLVQIKVVGATIEPFEGGGFLITGTAEQIAKAKDFLNSMSTEF,-1.29
12,HMAFAQMAQEAAKGKDDFNDLRQEMEAVIKEQPHILLMAQFGQNPYEIAYQEAKRRKAQDQQQQQ,-0.805
13,HMRDLVTYVVQVNGKLRGKLEVSPSTDDNSLKTMALELENVQRALEGLSVKKVIVIPGKMVSIAAG,-0.355
14,HMFTGELESRVFELNYVDGLVASAALAGVLTDKGSATPIASRAGGENDMLLVVDRIASYSQIEKIITQLD,-1.31
15,HMNFFQEIGNSILIELNKKNWTQSMFAHKIGVSDEVFKQIVQGKKALNAVEIAKIANTLDVDPEKLLRK,-0.0391
16,HMTVPNVVGQRILAAQDILKNLGLKVLVDTNLPNSQWGLRNVKSTNPGAGAVVRVGDTVTLIAR,0.124
17,HMATVNIGNLTFTHKGDYASGTTYAKNDVVYYSTNGNAYIAKQATQGNAPTSTAHWDVFAAGSGG,0.145
18,HMETSVDEVYKKIQAYIEAEDKHKPLSDQKLAEQLQSDGLKVSRRTVAKYREKLNIASSSKRKR,0.379
19,HMDAEETLGARLRRLRQARGLSLAGLAQAAGLSKPSIWAWENGTTAPRRTSLLALARALDVPEQQLTGV,-0.173

row,Sequence,soluble fraction (log2)
1,HMNILKAPMPGLILDVIVKESDLVKKGDPVIILEAMKMENILSSPVDGIVKEIKVNPQQTVEKNNTLIKFE,-0.469
2,HMGVDMGPAKYVGQKALTATEMRPAGKIQIGQTVFDAVSVGPFIGARKAVKVIKYENAQLYVEPE,0.116
3,HMVSDAWITGKVKSQLLADDVTPGMKIDVDTEDRIVSLKGTVPSLTARNEAIRIASHTKGVRTVDADELIV,-0.0247
4,HMHAEEIAREAKEALERGEEFHFAGITVRSEEALEFLEEWLRKFF,-1.23
5,HMAGLELVVTREQAGRTVKSLLRGELGISTALMGRLKRTGTGLTVNGTRVFTNAVLREGDRLAVDLDAAE,-0.0613
6,HMKVTADVVVADRLKAWIISNNLKPGDRLPTEQKLSEELGVARHTLREGIKRLSQLGIIGSRTGSGMYVKN,0.158
7,HMELSESLENYLVVIYEAHLRNEIARIKDMTASLSVKHTSAIDAIKKLEDLGIVNYEKRGFVKLTQSGIEK,-0.177
8,HMQSAMALTKDLIEQQGKYYHRGQPFTGVGFAKNKKGKFVTEEPFKNGLLHGKRVNYDHNGHVLAREK,-0.12
9,HMYIDNVTIYDVGFNERIVHALERAGVKNLYDLSQMNFYQLQRIRNLGASSLEKVINRIHSYGILLKNES,-0.761
10,HMSLLTIDELSQATGVSVRTLRYYVSSGVLDKPTGETRNARYGTHHLDQVRNIKKLQEEGLTLNRILEIKK,-0.405
11,HMHKLTIEEALNYKTPANAGGPYSGKPFRDIYDQRGKAAVISFAKYYLSKATPEDPMVEVYRTLLDGAMEL,0.102
12,HMKEQIKVPDLSNKTPEEAKKELNTLGLGARKGGEESSDTVEEGLITRQEPAAGEQVDKNTQILFYVSTGK,0.0545
13,HMSVPQENKDLLGRSIEIFYAGKTVEAKVTDTGALAPLGRALDLSPATWRAFGASSISDWGVRGVFYRFVA,-0.0838
14,HMKNLKLVSNTDGIRIDSWLADEFEDYSRSYLRKLIDQDLVYVNGNKIKANYKLKKGDEISISIPEPE,-0.259
15,HMEYYIMPVANLHKVVVDGKDMSNLISNNAIAVKANVIDEGQIQIKPGEIIITTPAGVSPEEAVRSP,-0.135
16,HMIEIKNLSFSYGKKKQSVFNDFSLTLDKGSVYGLLGKNGTGKSTLLYLMTGLLRPQAGQVLYKGVDVS,0.159
17,HMSLPKVLVPTDITVSQLAKYLEVDAIAIVKKLFGLGVVASLNQRLENEQMQLLGQEFGKDIIFTEN,-0.318
18,HMNLYHALDQQGEVYLTIPPRQSGRGKVTLMIDGRVREMDAMTDGDALKTGSKVRVTEILDENALKVEAM,-0.0493
19,HMSMVGSVNKQGRPFALLRVDNLLYQVKVGDYLGQNYGRITQIDETQIALREIVQDAAGEWIERPGVLQL,-0.256
